For assay [1], the target named is PZP domain of JADE1 (JADE1PZP), wild type (human) (UniProt Q6IE81). The assay can be described thus: other fluorescence titration.
The target in assay [2] is Nucleosome core particle with 207 bp DNA (NCP207) (human) (UniProt P04908). Kind of assay: fluorescence polarisation.
The target of assay [3] is Nucleosome core particle with 147 bp 601 DNA (NCP147) (human) (UniProt P04908). Kind of assay: fluorescence polarisation.

Sequence of PZP domain of JADE1 (JADE1PZP), wild type (human) (Q6IE81 201-373): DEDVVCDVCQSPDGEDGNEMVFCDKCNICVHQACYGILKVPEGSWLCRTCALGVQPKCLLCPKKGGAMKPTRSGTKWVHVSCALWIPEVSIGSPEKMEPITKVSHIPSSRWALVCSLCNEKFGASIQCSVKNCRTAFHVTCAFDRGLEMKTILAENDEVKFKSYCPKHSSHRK
Sequence of PZP domain of JADE1 (JADE1PZP), wild type (Q6IE81 201-373): as above

In assay [1], “H3_(1–31) peptide (residues 1–31 of H3) (from UniProt P68431 2-32)” had a Kd of the first site (two-site binding model) of 0.3 µM and a Kd of the second site (two-site binding model) of 25 µM.

Usually Kd stands for the equilibrium constant for the complex coming apart. On to “H3_(15–34) peptide (residues 15–34 of H3) (from UniProt P68431 16-35)”, for which, in assay [1], the equilibrium dissociation constant (Kd) is 63 µM.

As to “K331A/R334A/K367A (KRK) mutant of JADE1PZP (from UniProt Q6IE81 201-373) (domain or fragment)”, in assay [2], the fold decrease in binding against wild type JADE1PZP was found to be 55 fold.

Take “PZP domain of JADE1 (JADE1PZP), wild type (from UniProt Q6IE81 201-373) (domain or fragment)”: the S1/2 in assay [3] was 2.8 µM; in assay [2], 0.5 µM.

The values are drawn from publication PMC11320721.
